Measured values taken from article PMC7039410 (Nature, 2019).

Tests used:
[1] = molecular target: histone H2B, in the mononucleosome (X. laevis, UniProt P02281 2-126); test: cross-linking
[2] = molecular target: the molecule itself; test: AUC

B1: Swi6 (natural protein)
chain: MKKGGVRSYRRSSTSKRSVIDDDSEPELPSMTKEAIASHKADSGSSDNEVESDHESKSSSKKLKENAKEEEGGEEEEEDEYVVEKVLKHRMARKGGGYEYLLKWEGYDDPSDNTWSSEADCSGCKQLIEAYWNEHGGRPEPSKRKRTARPKKPEAKEPSPKSRKTDEDKHDKDSNEKIEDVNEKTIKFADKSQEEFNENGPPSGQPNGHIESDNESKSPSQKESNESEDIQIAETPSNVTPKKKPSPEVPKLPDNRELTVKQVENYDSWEDLVSSIDTIERKDDGTLEIYLTWKNGAISHHPSTITNKKCPQKMLQFYESHLTFRENE
binding result [1]: binds
stoichiometry N [2]: 2
